Assay results taken from patent US20200157223A1 (SHANGHAI JMT BIO TECHNOLOGY, published 2020).
One block for each binder: values may come before it.

Key:
[1] = target: T1, CD47 on the cell surface (A431, Raji, SKBR-3, NCI-H441, NK92MI-CD16a cells) (human, UniProt Q08722 19-323); experiment: flow cytometry on NCI-H441 cells
T1 construct: whole, on cells; also called CD47 antigen; human CD47 (cellular level)

[2] = target: T1, CD47 on the cell surface (A431, Raji, …); experiment: flow cytometry on A431 cells (no CD20)
[3] = target: T2, CD47-His (12283-H08H-200, Sino Biological) (human, UniProt Q08722 19-139); experiment: ELISA on coated CD47-His
T2 construct: Bought protein coated on ELISA plates; also called CD47 antigen; human CD47 (protein level); not shown: His tag

[4] = target: T1, CD47 on the cell surface (A431, Raji, …); experiment: cell-based or functional assay
[5] = target: T1, CD47 on the cell surface (A431, Raji, …); experiment: flow cytometry on A431 cells
[6] = target: T1, CD47 on the cell surface (A431, Raji, …); experiment: flow cytometry on SKBR-3 cells
[7] = target: T1, CD47 on the cell surface (A431, Raji, …); experiment: flow cytometry on IFN-γ-stimulated NCI-H441 cells
[8] = target: T1, CD47 on the cell surface (A431, Raji, …); experiment: flow cytometry on Raji cells

B4: Anti-EGFR-Fc1-D1-D2-Fc2 (bispecific antibody, human IgG1, kappa)
heavy: not shown
light: EIVLTQSPDFQSVTPKEKVTITCRASQSIGTNIHWYQQKPDQSPKLLIKYASESISGIPSRFSGSGSGTDFTLTINSLEAEDAATYYCQQNNEWPTSFGQGTKLEIKRTVAAPSVFIFPPSDEQLKSGTASVVCLLNNFYPREAKVQWKVDNALQSGNSQESVTEQDSKDSTYSLSSTLTLSKADYEKHKVYACEVTHQGLSSPVTKSFNRGEC
chain: not shown
toxic side effects caused by NK cells (ADCC on NK92MI-CD16a cells), reduction against the D1^m proteins [4]: ≥ 1000 fold

B6: Anti-EGFR-Fc1-D1-D2-D3-Fc2 (bispecific antibody, human IgG1, kappa)
heavy: not shown
light: EIVLTQSPDFQSVTPKEKVTITCRASQSIGTNIHWYQQKPDQSPKLLIKYASESISGIPSRFSGSGSGTDFTLTINSLEAEDAATYYCQQNNEWPTSFGQGTKLEIKRTVAAPSVFIFPPSDEQLKSGTASVVCLLNNFYPREAKVQWKVDNALQSGNSQESVTEQDSKDSTYSLSSTLTLSKADYEKHKVYACEVTHQGLSSPVTKSFNRGEC
chain: not shown
toxic side effects caused by NK cells (ADCC on NK92MI-CD16a cells), reduction against the D1^m proteins [4]: ≥ 1000 fold

B7: Obi-Fc1-D1-Fc2 (bispecific antibody)
heavy: not shown
light: DIVMTQTPLSLPVTPGEPASISCRSSKSLLHSNGITYLYWYLQKPGQSPQLLIYQMSNLVSGVPDRFSGSGSGTDFTLKISRVEAEDVGVYYCAQNLELPYTFGGGTKVEIKRTVAAPSVFIFPPSDEQLKSGTASVVCLLNNFYPREAKVQWKVDNALQSGNSQESVTEQDSKDSTYSLSSTLTLSKADYEKHKVYACEVTHQGLSSPVTKSFNRGEC
chain: not shown
toxic side effects caused by NK cells (ADCC on NK92MI-CD16a cells), reduction against the D1^m proteins [4]: ≥ 1000 fold

B9: Obi-Fc1-D1-D2-D3-Fc2 (bispecific antibody)
heavy: not shown
light: DIVMTQTPLSLPVTPGEPASISCRSSKSLLHSNGITYLYWYLQKPGQSPQLLIYQMSNLVSGVPDRFSGSGSGTDFTLKISRVEAEDVGVYYCAQNLELPYTFGGGTKVEIKRTVAAPSVFIFPPSDEQLKSGTASVVCLLNNFYPREAKVQWKVDNALQSGNSQESVTEQDSKDSTYSLSSTLTLSKADYEKHKVYACEVTHQGLSSPVTKSFNRGEC
chain: not shown
toxic side effects caused by NK cells (ADCC on NK92MI-CD16a cells), reduction against the D1^m proteins [4]: ≥ 1000 fold

B10: Obi-Fc1-D1-D2-Fc2 (bispecific antibody)
heavy: not shown
light: DIVMTQTPLSLPVTPGEPASISCRSSKSLLHSNGITYLYWYLQKPGQSPQLLIYQMSNLVSGVPDRFSGSGSGTDFTLKISRVEAEDVGVYYCAQNLELPYTFGGGTKVEIKRTVAAPSVFIFPPSDEQLKSGTASVVCLLNNFYPREAKVQWKVDNALQSGNSQESVTEQDSKDSTYSLSSTLTLSKADYEKHKVYACEVTHQGLSSPVTKSFNRGEC
chain: not shown
toxic side effects caused by NK cells (ADCC on NK92MI-CD16a cells), reduction against the D1^m proteins [4]: ≥ 1000 fold

More lines, main results first:

Maximum average fluorescence intensity [1]: 3500
binding result [2]: no binding
binding result [3]: no binding
B1: Anti-CD20 mAb (Ofatumumab) (antibody, human IgG1, kappa)
heavy: not shown
light: not shown
notes: also called Anti-CD20 (Ofatumumab)

EC50 [3]: 0.0939 µg/mL
B2: Anti-EGFR-Fc1-D1-Fc2 (bispecific antibody, human IgG1, kappa)
heavy: not shown
light: EIVLTQSPDFQSVTPKEKVTITCRASQSIGTNIHWYQQKPDQSPKLLIKYASESISGIPSRFSGSGSGTDFTLTINSLEAEDAATYYCQQNNEWPTSFGQGTKLEIKRTVAAPSVFIFPPSDEQLKSGTASVVCLLNNFYPREAKVQWKVDNALQSGNSQESVTEQDSKDSTYSLSSTLTLSKADYEKHKVYACEVTHQGLSSPVTKSFNRGEC
chain: not shown
notes: Knobs-into-holes heterodimer; left arm is the JMT101 half antibody; also called Anti-EGFR-Fc1-D1-Fe2
toxic side effects caused by NK cells (ADCC on NK92MI-CD16a cells), reduction against the D1^m proteins [4]: ≥ 1000 fold

binding result [3]: binds
B3: Anti-EGFR-Fc1-D1^m-Fc2 (bispecific antibody, human IgG1, kappa)
heavy: not shown
light: EIVLTQSPDFQSVTPKEKVTITCRASQSIGTNIHWYQQKPDQSPKLLIKYASESISGIPSRFSGSGSGTDFTLTINSLEAEDAATYYCQQNNEWPTSFGQGTKLEIKRTVAAPSVFIFPPSDEQLKSGTASVVCLLNNFYPREAKVQWKVDNALQSGNSQESVTEQDSKDSTYSLSSTLTLSKADYEKHKVYACEVTHQGLSSPVTKSFNRGEC
chain: not shown
notes: Knobs-into-holes heterodimer

binding result [3]: binds
B5: Anti-EGFR-Fc1-D1^m-D2-Fc2 (bispecific antibody, human IgG1, kappa)
heavy: not shown
light: EIVLTQSPDFQSVTPKEKVTITCRASQSIGTNIHWYQQKPDQSPKLLIKYASESISGIPSRFSGSGSGTDFTLTINSLEAEDAATYYCQQNNEWPTSFGQGTKLEIKRTVAAPSVFIFPPSDEQLKSGTASVVCLLNNFYPREAKVQWKVDNALQSGNSQESVTEQDSKDSTYSLSSTLTLSKADYEKHKVYACEVTHQGLSSPVTKSFNRGEC
chain: not shown
notes: Knobs-into-holes heterodimer

binding result [2]: no binding
B8: Anti-CD20 mAb (Obinutuzumab) (antibody, human IgG1, kappa)
heavy: not shown
light: DIVMTQTPLSLPVTPGEPASISCRSSKSLLHSNGITYLYWYLQKPGQSPQLLIYQMSNLVSGVPDRFSGSGSGTDFTLKISRVEAEDVGVYYCAQNLELPYTFGGGTKVEIKRTVAAPSVFIFPPSDEQLKSGTASVVCLLNNFYPREAKVQWKVDNALQSGNSQESVTEQDSKDSTYSLSSTLTLSKADYEKHKVYACEVTHQGLSSPVTKSFNRGEC
notes: also called Anti-CD20 (Obinutuzumab)

EC50 [1]: 0.286 nM
Maximum average fluorescence intensity [1]: 120000
EC50 [5]: 0.865 nM
EC50 [3]: 0.00544 µg/mL
EC50 [6]: 0.456 nM
EC50 [7]: 0.387 nM
EC50 [8]: 0.258 nM
B11: Anti-CD47 mAb (Hu5F9-G4) (antibody, human IgG4 S228P, kappa)
heavy: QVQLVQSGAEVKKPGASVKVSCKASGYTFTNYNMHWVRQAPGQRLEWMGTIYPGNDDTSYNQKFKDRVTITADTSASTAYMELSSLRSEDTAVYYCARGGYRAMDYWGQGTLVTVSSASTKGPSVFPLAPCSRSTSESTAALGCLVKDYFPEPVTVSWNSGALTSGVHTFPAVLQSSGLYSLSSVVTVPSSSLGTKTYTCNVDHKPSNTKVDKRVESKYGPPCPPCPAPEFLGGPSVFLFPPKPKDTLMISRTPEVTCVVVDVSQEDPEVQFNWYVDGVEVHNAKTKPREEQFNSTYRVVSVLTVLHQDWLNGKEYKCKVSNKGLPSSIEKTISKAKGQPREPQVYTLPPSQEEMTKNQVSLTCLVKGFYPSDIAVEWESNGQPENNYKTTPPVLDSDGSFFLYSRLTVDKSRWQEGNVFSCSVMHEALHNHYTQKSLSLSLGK
light: DIVMTQSPLSLPVTPGEPASISCRSSQSIVYSNGNTYLGWYLQKPGQSPQLLIYKVSNRFSGVPDRFSGSGSGTDFTLKISRVEAEDVGVYYCFQGSHVPYTFGQGTKLEIKRTVAAPSVFIFPPSDEQLKSGTASVVCLLNNFYPREAKVQWKVDNALQSGNSQESVTEQDSKDSTYSLSSTLTLSKADYEKHKVYACEVTHQGLSSPVTKSFNRGEC
notes: also called anti-CD47 antibody; Hu5F9-64

binding result [3]: no binding
B12: Anti-EGFR mAb (JMT101) (antibody, human IgG1, kappa, V domains shown)
VH: QVQLQESGPGLVKPSETLSLTCTVSGFSLSNYDVHWVRQAPGKGLEWLGVIWSGGNTDYNTPFTSRLTISVDTSKNQFSLKLSSVTAADTAVYYCARALDYYDYEFAYWGQGTLVTVSS
VL: EIVLTQSPDFQSVTPKEKVTITCRASQSIGTNIHWYQQKPDQSPKLLIKYASESISGIPSRFSGSGSGTDFTLTINSLEAEDAATYYCQQNNEWPTSFGQGTKLEIKR
notes: Humanized anti-EGFR monoclonal antibody
